Laboratory results taken from CN115043938A (DUAN LIANGWEI; JIANG ZHIHUA; WANG HUI, dated 2022).

B1: 抗体Amb2 (antibody, V domains shown)
VH: EVQLLESGPGLVKPSETLSLTCTVSGGSISNSSYYWGWIRQPPGKGLEWIGSIYYSGSTYYNPSLKSRVTISVDTSKNQFSLKLSSVTAADTGVYYCASWLYGDPISFDYWGQGTLVTVSS
VL: not shown
B2: 抗体Amb1 (antibody, V domains shown)
VH: EVQLLESGTEVKKPGSSVKVSCKASGGTFSSYAISWVRQAPGQGLEWMGGIIPILGIANYAQKFQGRVTITADKSTSTAYMELSSLRSEDTAVYYCARERGYSGYGAAYYFDYWGQGTLVTVSS
VL: QSVLTQAPSVSGAPGQSVTISCTGSSSNIGAGYDVHWYQQLPGTAPKLLIYGNNNRPSGVPDRFSGSKSGTSASLAITGLQAEDEADYYCQSYDSSLSKGVFGGGTKLTVL

Target: SARS-CoV-2 Beta S蛋白 (假病毒) (SARS-CoV-2 Beta, UniProt P0DTC2 14-1273)
Assay: cell-based or functional assay

| Binder | 假病毒中和 IC50 [µg/mL] |
| --- | --- |
| B1 | 0.0452 |
| B2 | 0.0266 |
